From PMC11388019, “Autoregulatory mechanism of enzyme activity by the nuclear localization signal of lysine-specific demethylase 1 [drawing 1]” (The Journal of Biological Chemistry, 2024)

Key:
[1] = molecular target: biotinylated recombinant human nucleosome (unmodified, 147 bp 601 DNA) (human) (UniProt P68431); experiment: SPR; biotinylated recombinant human nucleosomes (147 bp 601 DNA) immobilised on a streptavidin chip SA at 4000-5000 RU; LSD1-CoREST injected at 5-2000 nM (full length up to 500 nM), 40 μl/min; Biacore 3000, 298 K; running buffer 10 mM Tris, 100 mM NaCl, 1 mM EDTA, 2 mM TCEP, 0.005% Tween 20, pH 7.4; apparent Kd
[2] = molecular target: biotinylated NT-LSD1 (residues 100–151) (human); experiment: SPR; biotinylated NT-LSD1 immobilised at 560 RU; ΔN LSD1-CoREST injected at 25-1000 nM, 40 μl/min, in running buffer
[3] = molecular target: ΔN LSD1 (171–852)–CoREST (286–482) complex (human) (UniProt O60341); experiment: enzyme inhibition kinetics (peroxidase-coupled demethylase assay); 0.3 μM ΔN LSD1-CoREST, 50 mM Hepes (Na) pH 7.5, 25 °C; H3K4me2 peptide (1-21) substrate 10-60 μM; NLS 0-10 μM or NLSp∗ 0-100 μM; fit to competitive inhibition; Ki called apparent in the legend
[4] = molecular target: ΔN LSD1 (171–852)–CoREST (286–482) complex (human) (UniProt O60341)

Kd [1] [nM] | Kd [2] [nM] | Ki [3] [nM] | IC50 of inhibition of ΔN LSD1-CoREST demethylation of H3K4me2 nucleosomes (quantitative Western blot, NLS peptide 10-400 μM) [4] [nM] | Substance
103 | – | – | – | full-length LSD1 (1–852)-CoREST (286–482) complex (from UniProt O60341 1-852)
1760 | 571 | – | – | ΔN LSD1 (171–852)–CoREST (286–482) complex (from UniProt O60341 171-852)
– | – | 38700 | – | phosphomimic NLS peptide (aa 107–120, T110D/S111D)
– | – | 3300 | 30400 | NLS peptide (LSD1 aa 107–120)
